Source: the RNAGym collection of RNA variant scans (doi:10.1073/pnas.2313332121)

B1: TPR t1 (parent)
chain: GACCAAUCUGCCCUCAGAGCUCGAGAACAUCUUCGGAUGCAGAGGAGGCAGGCUUCGGUGGCGCGAUAGCGCCAACGUCCUCAACCUCCAAUGCAUCCCACCACAUGAUGAUGCCUGAAGAGCCUUGGUUUUUUG

Variants of: B1
Experiment: polymerase ribozyme fitness, log enrichment relative to wild type (log ratio); higher = more active; in vitro selection for triplet polymerase activity
How it was run: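 Fitness measures genotype enrichment against wild-type enrichment on a logarithmic scale, with inverse-variance-weighted averaging of replicates. The logarithm is base 2, and genotypes were kept only with ≥10 input reads and ≥1 read per output in Illumina sequencing. The sequenced libraries came from one triplicate in vitro selection round, including frozen incubation at −7 °C, of PCR-built, transcribed mutant libraries of each subunit of a heterodimeric triplet polymerase ribozyme.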

| Variant | polymerase ribozyme fitness (log ratio) |
| --- | --- |
| GACCAAUCUGCCCUCAGAGCUUGAGAACAUCUUCGGAUGCAGAGGAGGCAGGCUUCGGUGGCCCGAUAGCGCCAACGUCCUCAACCUCCAAUGCAUCCCACCACAUGAUGAUGCCUGAAGAGCCUUGGUUUUUUG [C22U G63C] | -4.47 |
| GACCAAUCUGCCCUCAGAGCUCGAGAACAUCUUCGGAUGCAGAAGAGGCAGGCUUCGGUGGCGCGAUAGCGCCAACGUCCUCAACCUCCAAUGCAUCCCACCACAUGAUGAUGCCUGAAGAGCCUUGGUUUUUUG [G44A] | -0.794 |
| GACCAAUCUGCCUCCAGAGCUCGAGAACAUCUUCGGAUGCAGAGGAGGCUGGCUUCGGUGGCGCGAUAGCGCCAACGUCCUCAACCUCCAAUGCAUCCCACCACAUGAUGAUGCCUGAAAAGCCUUGGUUUUUUG [C13U U14C A50U G120A] | -0.904 |
| GACCAAUCUGCCCUCAGAGCUCGAGAACAUCUUCGGAUGCGGAGGAGGCAGGGUUCGGUGGCGCGAUAGCGCCAACGUCCUCACCCUCCAAUGCAUCCCACCACAUGAUGAUGCCUGAAGAGCCUAGGUUUUUUG [A41G C53G A84C U126A] | -2.86 |
| GACCAAUCUGCCCUCAGAGCUCGAGAACAUCUUCGGAUGGAGAGGAGGCAGGCUUCGGUGGCGCGAUAGCGGCAACGUCCUCAACCUCCAAUGCAUCCCACCACAUGAUGAUGCCUGAAGAGCCUUGGUUUUUUG [C40G C72G] | -1.56 |
| GACCAAUCUGCCCUCAGAGCUCGAGAACAUCUUCGGAUUCAGAGGAGGCAGGCUUAGGUGGCGCGAUAGCGCCAACGUCCUCAACCUCCAAUGCAUCCCACCACAUGAUGAUGCCUGAAGAGCCUUGGUUUUUUG [G39U C56A] | -1.06 |
| GACCAAUCUGCCCUCAGAGCUCGAGAACAUCUUCGGAUGCAGCGGAUGCAGGUUUCGGUGGCGCGAUAGCGCCAACGUCCUCAACCUGCAAUGCAUCCCACCAUAUGAUGAUGCCUGAAGAGCCUUGGUUUUUUG [A43C G47U C53U C88G C104U] | -6.05 |
| GACCAAUCUGCCCCCAGAGCUCGAGAACAUCUUCGGAUGCAGAGGAGGCAGGCUUCGGUGGCGCGAUAGCGCCAACGUCCUCAACCUCCAAUGCAUCCCACCACAUGAUAAUGCCUGAAGAGCCUUGGUUUUUUG [U14C G110A] | -2.2 |
| GACCAAUCUGCCCUCAGAGCUCAAGAAGAUCUUCGGAUGCAGAGGAGGCAGGCUUCGGUGGCGCGAUAUCGCCAACGGUCUCAACCUCCAAUGCAUCCCACCACAUGAUGACGCCUGAAGAGCCUUGUUUUUGUG [G23A C28G G69U U78G C79U U112C G128U U133G] | -5.41 |
| GACCAAUCUGCCCUCAGAGCUCGAGAACAUCUUAGGAUGCAGAGGAGGCAGGCUUCGGUGGCGCGAUAGCGCCAACGUCCUCAACCUCCAAUGCAUCCCACCACAUGAUGAUGCCUGAAAAGCGUUGGUUUUAUG [C34A G120A C124G U133A] | 0.189 |
| GACCAAUCUGCCCUCAGAGAUCGAGAACAUCUUCGGAUGCAGAGGAGGCAGGCUUCGGUGGCGCGAUAGCGGCAUCGUCCUCAAACUCCAAUGCAUCCCACCACAUGAUUAUGCCUGAAGAGCCUUGGUUUUUUG [C20A C72G A75U C85A G110U] | -5.51 |
| GACCAUUCUGCCCUCAGAGCUCGAGAACAUCUUCGGAUGCAGAGGAGGCAGGCUUCGGUGGCGCGAUAGCGCCAACGUCCUCAACCUCCAAUGCAUCCCACCGCAUGAUGAUGCCUGAAGAGCCUUGGUUUUUUG [A6U A103G] | -4.63 |
| GACCAAUCUGCCCUCAGAGCUCGAGAACAUCUUCGGGUGCAGAGGAGGCAGGCUUCGGUGGCGCGAUAGCGCCAACGUCCUCAACCUCCAAUGCAUCCCACCACAUGAUGAUGCCUGAAGAGCCUUGGUUGUUUG [A37G U131G] | -1.11 |
| GACCAAUCUGCCCUCAGAGCUCGAGAACAUCUUCGGAUGCAGAGGAGGCAGGCUUCGGUGGCGCGAUAGCGCCAACGACCUCAACCUCCAAUGCACCCCACCAUAUGAUGAUGCCUGAAGAGCCUUGGUUUUUUG [U78A U96C C104U] | 0.046 |
| GACCAAUCUGCCCUCAGAGCUCGAGAACAUCUUCGGAUGCAGAGGAGGCAGGCUUCGGUGGCGCGAUAGCGCCAACGUCCUCAACCUCCAAUGCAUCCCACCACAUGAUGAUGCCUAAAGAGCCUUAGUUUUUUG [G117A G127A] | -4.19 |
| GACCAAUCUGCCGUCAGAGCUCGAGAACAUCUUCGGAUGCAGAGGAGGCAGGCUUCGGUGGCGCGAUAGCGCCAACGUCCUCAACCUCCAAUGCAUCCCACCACAUGAUGAUGCCUGAAGAGGCUUGGUUUUUUG [C13G C123G] | 1.77 |
| GACCAAUCUGCACUCAGAGCUAGAGAACAUCUUCGGAUGCAGAGGAGGCAGGCUUCGGAGCCGCGAUAGCGCCAACGUCCUCAACCUCCAAUGCAUCCCACCACAUGAUGAUGCCUGAAGAGCCUUGGUUUUUUG [C12A C22A U59A G61C] | -5.61 |
| GACCAAUCUACCCUCAGAGCUCGAGAACAUCUUCGGAUGCAGAGGAGGCAGGCUUCGGUGGCGCGAUAGCGACAACGUCCUCAACCGCCAAUGCAUCCCACUACAUGAUGAUGCCUGAAGAGCCUUGGUUUUUUG [G10A C72A U87G C102U] | -1.09 |
| GACCAAUCUGCCCUCAGAGCUCGACAACAUCUUCGGAUGCAGAGGAGUCAGGCUUCGGUGGCGCGAUAGCGGCAACGUCCUCAACGUCCAAUGCAUCCCUCAACAUGAUGAUGCCUUAGGAGCCUUGGUUUUUUG [G25C G48U C72G C86G A100U C102A G117U A119G] | -7.7 |
| GACCAAUAUGCCCUCAGAGCUCGAGAACAUCUUCGGAUGUAGAGGAGGCAGGCUUCGGUGGAGCGAUAGCGCCAACGUCCUCAACCUCCCAUGCAUCCCACCACAUGAUGAUGCCUGAAGAGCCUUGGUUUUUUG [C8A C40U C62A A90C] | -3.39 |
| GACCAAUCUGCCCUCAGAGCUCGAGAACAUCUUCGGAUGCAGAGGAGGCAGGCUUCGGUGGCGCGAUACCGCCAACGUCCUCAACCUCCAAUGCAUCACACCAAAUGAUGAUGCUUGAAGAGCCUUGGUUUUUUG [G69C C98A C104A C115U] | -7.27 |
